Data on two molecules can be found in article PMC2808246, “Mycobacterial Nucleoside Diphosphate Kinase Blocks Phagosome Maturation in Murine Raw 264.7 Macrophages” (PLoS ONE, 2010).

The target in experiment [1] is T1, Rab5a GTPase, recombinant, GTP-loaded (UniProt P20339 1-215).
T1 sequence: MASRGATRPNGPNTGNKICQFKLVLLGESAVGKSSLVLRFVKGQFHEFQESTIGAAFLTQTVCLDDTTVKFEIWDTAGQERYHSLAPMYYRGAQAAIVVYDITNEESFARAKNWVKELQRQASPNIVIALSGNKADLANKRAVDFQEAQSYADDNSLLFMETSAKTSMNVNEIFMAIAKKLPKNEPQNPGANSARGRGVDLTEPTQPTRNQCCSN
Description: cell-based or functional assay.

Experiment [2] has as its target Rab7 GTPase, recombinant, GTP-loaded (UniProt P51149 1-207). Description: cell-based or functional assay.

Chain of Rab7 GTPase, recombinant, GTP-loaded (P51149 whole entry): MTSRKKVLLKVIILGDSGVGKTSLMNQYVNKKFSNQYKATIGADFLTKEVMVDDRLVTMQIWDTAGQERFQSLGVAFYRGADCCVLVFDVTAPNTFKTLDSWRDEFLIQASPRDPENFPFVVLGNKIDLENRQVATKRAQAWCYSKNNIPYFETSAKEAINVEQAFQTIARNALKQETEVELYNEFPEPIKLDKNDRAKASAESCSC

B1: Mycobacterium tuberculosis nucleoside diphosphate kinase (Ndk), recombinant (enzyme)
chain: MTERTLVLIKPDGIERQLIGEIISRIERKGLTIAALQLRTVSAELASQHYAEHEGKPFFGSLLEFITSGPVVAAIVEGTRAIAAVRQLAGGTDPVQAAAPGTIRGDFALETQFNLVHGSDSAESAQREIALWFPGA
B1: the “GAP activity: depletion of the gamma phosphate of [γ-32P]GTP bound to Rab5 spotted on nitrocellulose, after 2 h with 10 µg/ml Ndk, relative to untreated” value in experiment [1] was determined as 95%. Moreover, the “GAP activity: depletion of the gamma phosphate of [γ-32P]GTP bound to Rab7 spotted on nitrocellulose, after 2 h with 10 µg/ml Ndk, relative to untreated” value in experiment [2] amounted to 90%.

B2: Mycobacterium smegmatis nucleoside diphosphate kinase (Ndk), recombinant (enzyme)
chain: MTERTLVLIKPDGVKRQLVGEILSRIERKGLTLAALELKNVSDDLARQHYAEHADKPFFGSLLEFITSGPLVAAIVEGPRAVAAFRQIAGGTDPVEKAVPGTIRGDFALITQDNLVHGSDSPESAAREIALWFPGEATA
Regarding B2, the “GAP activity: reduction of [γ-32P]GTP bound to Rab5 spotted on nitrocellulose, after 2 h with 10 µg/ml Ndk, relative to untreated” value in experiment [1] was 35%.
